This is an account of results in paper PMC9499506, “TNF-α and IL-1β Modulate Blood-Brain Barrier Permeability and Decrease Amyloid-β Peptide Efflux in a Human Blood-Brain Barrier Model” (International Journal of Molecular Sciences, 2022).

For series [1], the system named is BLECs. In words: Aβ1–40Cy5 peptide / FITC-inulin transport across untreated BLECs (Papp, transcytosis quotient). It is filed as in vitro ADME, human. The note with it: 30 min, 37 °C, mean ± SEM; for apparent permeability coefficient (Papp), efflux transport, control: untreated human BLECs on Transwell insert, basolateral-to-apical, 10 nM Aβ1–40Cy5 with 1 µM FITC-inulin in RH-HSA 0.1% pH 7.4, slight agitation, fluorescence, at least three independent experiments in triplicate. As to the method: As TNF-α and IL-1β modulated the protein expression levels of LRP1, BCRP and PICALM (Figure 4), we investigated the effect of these cytokines on the transport of Aβ peptide across the BBB. After 24 h of treatment with proinflammatory cytokines, the apical-to-basolateral (influx) and basolateral-to-apical (efflux) Aβ1–40Cy5 peptide transports across the BLECs were assessed in the presence of FITC-inulin. The Aβ1–40 peptide was used in all experiments, as it is the most abundant amyloid peptide found on cerebral blood vessels. FITC-inulin was used to determine the nonspecific transcytosis quotient (Figure 5A). Indeed, unlike Aβ peptide, FITC-inulin is not actively cleared at the BBB and acts as a reference marker of paracellular permeability, thus as previously reported.
(§1) As described previously, the human in vitro blood-brain barrier (BBB) model based on the acquisition of the human brain-like endothelial cell (BLEC) phenotype was used for this study. This BBB model corresponds to a coculture of primary human endothelial cells (ECs) derived from CD34^+ cord blood hematopoietic stem cells and bovine brain pericytes, isolated as described by Vandenhaute and colleagues. Informed consent was obtained from all infants’ parents for the umbilical cord blood collection and use. Procedures for isolation of cells from umbilical cord were approved by the French Ministry of Higher Education and Research (CODECOH DC2011-1321, approved 31 January 2013) and by the local investigational review board (Béthune Maternity Hospital, Beuvry, France). Briefly, 8 × 10^4 ECs at passage 6 were seeded onto Matrigel-coated (BD Biosciences, San Jose, CA, USA) insert (pore size 0.4 μm, Costar Transwell inserts, Corning Inc., Corning, New York, NY, USA. Endothelial cells were cocultured with bovine brain pericytes at passage 10 in a 12-well plate gelatin-coated with ECM-5. Every two days, ECM-5 was changed until experiment. However, a minimum of 5 days of culture were required for the ECs to develop the BLEC phenotype and a maximum of 21 days of BLEC phenotype stability has been determined. Once BLEC phenotype was acquired, these cells delimited two compartments, one mimicking the blood side (corresponding to the apical compartment) and the other the brain side (corresponding to the basolateral side). […]
After proinflammatory cytokine treatments, the influx (apical-to-basolateral) and the efflux (basolateral-to-apical) transport of Aβ1–40 peptides across BLECs were investigated as previously described. […] The BBB integrity was determined by measuring the endothelial permeability of a radioactive integrity marker, ^14C-sucrose, using the same method of calculation as described in Section 4.4. […]

The test system of series [2] is BLECs. The note with it: MTT assay; 10% (v/v) DMSO, 24 h; positive control of cell toxicity; mean of at least three independent experiments in triplicate. The method, then:
An MTT assay was performed as a preliminary test to determine their effect on BLEC viability and to validate the chosen concentrations. Dimethyl sulfoxide (DMSO) at 10% (v/v) was used as a positive control of cell toxicity.
After 6 days of coculture, TNF-α or IL-1β were added to the basolateral compartment (brain side) at 10 ng·mL^−1 for 24 h, at 37 °C and 5% CO2, to mimic CNS inflammation condition. Each condition was studied in triplicate.
The standard MTT [3-(4,5-dimethylthiazol-2-yl)-2,5-diphenyltetrazolium bromide] assay (AR1156, Boster Biological Technology, Pleasanton, CA, USA) was performed to determine BLEC viability. Briefly, after coculture treatments, culture medium was removed and replaced with worm Ringer-Hepes (RH; 150 mM NaCl, 5.2 mM KCl, 2.2 mM CaCl2, 0.2 mM MgCl2–6H2O, 6 mM NaHCO3, 5 mM HEPES, 2.8 mM glucose; pH: 7.4) in basolateral compartment and with MTT solution (0.5 mg·mL^−1) in RH at in the opposite compartment for 3 h at 37 °C and 5% CO2. […] Aliquot was sampled in 96-well plate and the optical density (OD) was measured with a microplate reader (Synergy H1, BioTek. Colmar, France) at the wavelength of 570 and 630 nm. The percentage of relative cell viability compared to the control condition was subsequently determined using the following formula: % relative cell viability = ((OD570 − OD630) condition)/((OD570 – OD630)control) × 100.
(Tetrazolium assays rely on reduction of a dye to a coloured formazan, in cell work by metabolically active cells.)

For the next series, the system named is BLEC monolayer. Briefly: Endothelial permeability coefficient of lucifer yellow across untreated BLEC monolayer. It is filed as in vitro ADME, human. The note with it: mean ± SEM.
Source text: as §1, with “Procedures for isolation of cells from umbilical cord were approved by the French Ministry of Higher Education and Research (CODECOH DC2011-1321, approved 31 January 2013) and by the local investigational review board (Béthune Maternity Hospital, Beuvry, France).” left out
The BLEC monolayer integrity was evaluated after each treatment using the method described by Dehouck and colleagues. […]

Take FITC-inulin: the “apparent permeability coefficient (Papp), efflux transport, control” value in the series with BLECs [1] was 1.41 ± 0.03 × 10^−6 cm·min^−1.

Consider `C[S+](C)[O-]` [DMSO, Dimethyl sulfoxide, reference compound], for which, in the series on BLECs [2], the “decrease of BLEC viability compared to control” value was found to be 26.5%.

Regarding “human amyloid-β peptide (1–40)-Cy5 [Aβ1–40Cy5]”, the “transcytosis quotient of Aβ1–40Cy5, efflux direction, control” value with BLECs [1] (efflux Aβ1–40Cy5 Papp / efflux FITC-inulin Papp, untreated BLECs) is 3.22 ± 0.13. The “transcytosis quotient of Aβ1–40Cy5, influx direction, control” value in the series with BLECs [1] (influx Aβ1–40Cy5 Papp / influx FITC-inulin Papp, untreated BLECs) is 3.10 ± 0.25. Besides, the “apparent permeability coefficient (Papp), efflux transport, control” value in the series on BLECs [1] is reported as 4.47 ± 0.16 × 10^−6 cm·min^−1.

Regarding Lucifer Yellow CH dilithium salt [LY], the “transcellular PeLY, control BLECs” value in the series on BLEC monolayer (PeLY at 37 °C minus PeLY at 4 °C) was 0.36 ± 0.02 × 10^−3 cm·min^−1. Also, the “paracellular PeLY, control BLECs” value with BLEC monolayer (as total PeLY but at 4 °C (transcellular pathway inhibited), 50 µM LY in RH buffer, fluorescence) is on record as 0.18 ± 0.01 × 10^−3 cm·min^−1.
